Results on three molecules are retold here after PMC11739564, “Structure and function of a β-1,2-galactosidase from Bacteroides xylanisolvens, an intestinal bacterium” (Communications Biology, 2025).

For series [1], the target named is Bxy_22780 (GH35 β-1,2-galactosidase from Bacteroides xylanisolvens), wild type (Bacteroides xylanisolvens). Nature of the series: crystal structure; WT enzyme co-crystallised with 20 mM galactose or MeβGal; reservoir 0.35 M potassium thiocyanate, 12% PEG 3350; 20 °C; oligomeric state from PISA server analysis of the crystal structures.
Series [2] has as its target Bxy_22780 E350G mutant (nucleophile mutant) (Bacteroides xylanisolvens). Nature of the series: crystal structure; E350G mutant, ligand-free; 10–11 mg/ml in 50 mM MOPS (pH 7.5), 300 mM NaCl; reservoir 0.2 M sodium citrate tribasic dihydrate, 20% PEG 3350, 100 mM bis–Tris propane (pH 7.5); 20 °C; oligomeric state from PISA server analysis of the crystal structure.
Substrate in the series “purified protein”: O=[N+]([O-])c1ccc(O[C@@H]2O[C@H](CO)[C@H](O)[C@H](O)[C@H]2O)cc1
Description: purified protein. The following applies: hydrolysis, kinetic assays at pH 7.5, 30 °C.

Substrate in series [3]: C[C@H]1O[C@@H](Oc2ccc([N+](=O)[O-])cc2)[C@H](O)[C@@H](O)[C@H]1O
Description: hydrolysis kinetics (read-out for this constant not clearly told). It counts as biochemical, Bacteroides xylanisolvens. The settings on record: kinetic assays at pH 7.5, 30 °C. An excerpt:
hydrolysis kinetics (read-out for this constant not clearly told) on Bxy_22780

One may read the stoichiometry N as a count of units in the complex or per binding partner. For the molecule “Bxy_22780 (GH35 β-1,2-galactosidase from Bacteroides xylanisolvens), wild type (enzyme)”, the stoichiometry N in series [1] was 4.

In series [2], “Bxy_22780 E350G mutant (nucleophile mutant) (enzyme)” came in with a stoichiometry N of 4.

B1: Bxy_22780 (Bacteroides xylanisolvens XB1A) (protein)
chain: RPPMYTSTNTEVPSRLVKNEHGSWQLIVNGKPFIMLAGELHNSSASTTEYLNSLWTSLKTLNLNTVLAPIAWEQFEPQEGIFDYTLINNMIDGARKNGFKLSILWFGSWKNGESSYAPTWVKEDTKRFFRVKSVEGKEIETISPFCENAMKADAKAFKTLVEHIKKVDQATGTVIALQPENEVGIFQGMDYSKASLAAYEQEVPQALIQYMKKNRKNLRKELLSVWEENGARTSGAWKTVFGDNAWSKSFYTTWQYATYIDFISAGAKEIYPLPTFCNCWLVQKPDDMPGVYPNGGPVSRVMDIWKAAAPHIDVLAPDIYLSDFKNIVADYHRADNPLLIPEAVMKPANAFWAFGEHSALCYSPFGIEDGADNFVFAQSYKVLNELIPLISEHQGSDRMIGVMKMPGESERTVTMGDYQLCIKYDAEDAYGLIIQTGKNEFVVAGINFKVYFTSTDKKKTGYIKQVWEGGYDTDGEWKATRLLNGDETYHNAVLIAKGRRTFTSEKSNNYNADHSDEIFVYSPTSYQAVWSPGIYRVTTYLR
notes: N-terminal signal peptide (22 residues, counted with the 14 upstream residues) removed; C-terminal His6-tag (pET30a), E. coli BL21(DE3); homotetramer, D494 of a neighbouring subunit contacts subsite -1
As usually defined, the Km is the concentration of substrate that gives half-maximal velocity. The Vmax is the top rate of the reaction or transport when substrate is in excess. B1: in the series “purified protein”, the Km was 3.49 ± 0.53 mM, the Vmax turned out to be 21.2 µmol/min/mg and the Vmax/Km came out at 6080 µL/min/mg. Moreover, in series [3], the Michaelis-Menten constant (Km) stood at 7.95 ± 0.46 mM, the Vmax was determined as 14 µmol/min/mg and the Vmax/Km stood at 1760 µL/min/mg.
